Experimental data: patent US20260151519A1 (AKTIS ONCOLOGY, published 2026)
Bridges are numbered along the chain shown (N, C = ends). Primed or numbered codes have the meaning given here. Where no end group is shown, it is not given here. The star is where a group is joined. Biotin = O=C1N[C@H]2[C@H](CS[C@H]2CCCCC(=O)*)N1; PEG4″ = 4(ethylene glycol)

T1: Human Nectin-4 (human, UniProt Q96NY8 32-349, limits assumed)
T1 construct: Protein immobilised on the SPR chip; also called target protein
T1 sequence: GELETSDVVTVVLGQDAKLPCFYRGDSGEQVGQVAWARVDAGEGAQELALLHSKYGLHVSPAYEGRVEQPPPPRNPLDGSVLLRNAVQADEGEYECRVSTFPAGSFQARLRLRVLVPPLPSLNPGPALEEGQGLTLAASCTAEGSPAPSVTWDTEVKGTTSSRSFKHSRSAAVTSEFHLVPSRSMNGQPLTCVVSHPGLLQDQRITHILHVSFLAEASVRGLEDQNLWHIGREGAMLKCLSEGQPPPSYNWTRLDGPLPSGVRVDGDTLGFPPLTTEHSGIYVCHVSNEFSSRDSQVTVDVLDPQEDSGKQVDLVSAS


Each binder was assayed against T1, Human Nectin-4 (assay: Table 2B (DELFIA or SPR)).
{Biotin-PEG4″}-CEYDEEFFTALARLRGGDICYYIQAKFQYLPKLCIEEILDNLGCS-OH (designed binder, disulfide 1-34, 20-44) [C166] was tested, and the Kd was 0.75 nM.
Work on {Biotin-PEG4″}-CEYDEEFFTALKRLRGDDICEYIQASFQYLPGLCIEEILDNLGCS-OH (designed binder, disulfide 1-34, 20-44) [C181] yielded a Kd of 3 nM.
Binder {Biotin-PEG4″}-CEYDEEFFTALARLRGGDICEYIQAKFQYLPKLCIEEILDNLGCS-OH (designed binder, disulfide 1-34, 20-44) [C167] has a Kd of 1.2 nM.
{Biotin-PEG4″}-CEYDEEFFTALARLRGGDICYYIQAYFQYLPGLCIEEILDNLGCS-OH (designed binder, disulfide 1-34, 20-44) [C174] showed a Kd of 4.1 nM.
Binder {Biotin-PEG4″}-CDYDEEFFTALKRLRGGDICEYIQASFQYLPGLCIEEILDNLGCS-OH (designed binder, disulfide 1-34, 20-44) [C188] has a Kd of 1.6 nM.
{Biotin-PEG4″}-CEYDEEFFTALKRLRGDDICSYIQASFQYLPGLCIEEILDNLGCS-OH (designed binder, disulfide 1-34, 20-44) [C182] was tested, and the Kd was 3 nM.
With {Biotin-PEG4″}-CDYDEEFFTALKRLRGGDICSYIQASFQYLPGLCIEEILDNLGCS-OH (designed binder, disulfide 1-34, 20-44) [C189] the Kd was 1.1 nM.
{Biotin-PEG4″}-CEYDEEFFTALARLRGGDICSYIQAKFQYLPKLCIEEILDNLGCS (designed binder, disulfide 1-34, 20-44) [C168] was tested, and the Kd was 0.9 nM.
{Biotin-PEG4″}-CEYDEEFFTALARLRGGDICDYIQAKFQYLPKLCIEEILDNLGCS (designed binder, disulfide 1-34, 20-44) [C169] showed a Kd of 0.74 nM.
Binder {Biotin-PEG4″}-CDYDEEFFTALKRLRGDDICSYIQASFQYLPGLCIEEILDNLGCS-OH (designed binder, disulfide 1-34, 20-44) [C192] has a Kd of 1.3 nM.
Work on {Biotin-PEG4″}-CEYDEQFFTALKRLRGGDICSYIQASFQYLPGLCIEEILDNLGCS (designed binder, disulfide 1-34, 20-44) [C184] yielded a Kd of 2.5 nM.
Work on {Biotin-PEG4″}-CDYDEEFFTALKRLRGDDICEYIQASFQYLPGLCIEEILDNLGCS-OH (designed binder, disulfide 1-34, 20-44) [C191] yielded a Kd of 1.4 nM.
With {Biotin-PEG4″}-CEYDEEFFTALKRLRGGDICSYIQASFQYLPGLCIEEILDNLGCS-OH (designed binder, disulfide 1-34, 20-44) [C179] the Kd was 1.8 nM.
Binder {Biotin-PEG4″}-CEYDEQFFTALKRLRGADICEYIQASFQYLPGLCIEEILDNLGCS-OH (designed binder, disulfide 1-34, 20-44) [C183] has a Kd of 1.2 nM.
Work on {Biotin-PEG4″}-CEYDEQFFTALKRLRGDDICSYIQASFQYLPGLCIEEILDNLGCS (designed binder, disulfide 1-34, 20-44) [C186] yielded a Kd of 1.7 nM.
For {Biotin-PEG4″}-CEYDEEFFTALKRLRGGDICYYIQASFQYLPGECIEEILDNLGCS-OH (designed binder, disulfide 1-34, 20-44) [C177], the Kd was 2 nM.
For {Biotin-PEG4″}-CEYDEEFFTALKRLRGDDICYYIQASFQYLPGLCIEEILDNLGCS-OH (designed binder, disulfide 1-34, 20-44) [C180], the Kd was 2.7 nM.
